Data taken from patent US20210155683A1.

Assays:
[1] = target: NGF (as used in the TF-1 cell proliferation assays); test: cell-based or functional assay
human β-NGF (human) [2] = target: human β-NGF (human) (UniProt P01138); test: ELISA, plate coated with human β-NGF, anti-human IgG-HRP detection, 4-parameter fit
human β-NGF (human) [3] = target: human β-NGF (human) (UniProt P01138); test: ELISA, plate coated with 0.5 µg/mL human β-NGF; antibody at 1 µg/mL; duplicate well 1
human β-NGF (human) [4] = target: human β-NGF (human) (UniProt P01138); test: ELISA, plate coated with 0.5 µg/mL human β-NGF; antibody at 1 µg/mL; duplicate well 2
human β-NGF (human) [5] = target: human β-NGF (human) (UniProt P01138); test: ELISA, plate coated with 0.5 µg/mL human β-NGF; antibody 1 µg/mL diluted 1:3; duplicate well 1
human β-NGF (human) [6] = target: human β-NGF (human) (UniProt P01138); test: ELISA, plate coated with 0.5 µg/mL human β-NGF; antibody 1 µg/mL diluted 1:3; duplicate well 2
human β-NGF (human) [7] = target: human β-NGF (human) (UniProt P01138); test: ELISA, plate coated with 0.5 µg/mL human β-NGF; antibody 1 µg/mL diluted 1:9; duplicate well 1
human β-NGF (human) [8] = target: human β-NGF (human) (UniProt P01138); test: ELISA, plate coated with 0.5 µg/mL human β-NGF; antibody 1 µg/mL diluted 1:9; duplicate well 2
human β-NGF (human) [9] = target: human β-NGF (human) (UniProt P01138); test: ELISA, plate coated with 0.5 µg/mL human β-NGF; antibody 1 µg/mL diluted 1:27; duplicate well 1
human β-NGF (human) [10] = target: human β-NGF (human) (UniProt P01138); test: ELISA, plate coated with 0.5 µg/mL human β-NGF; antibody 1 µg/mL diluted 1:27; duplicate well 2
human β-NGF (human) [11] = target: human β-NGF (human) (UniProt P01138); test: ELISA, plate coated with 0.5 µg/mL human β-NGF; antibody 1 µg/mL diluted 1:81; duplicate well 1
human β-NGF (human) [12] = target: human β-NGF (human) (UniProt P01138); test: ELISA, plate coated with 0.5 µg/mL human β-NGF; antibody 1 µg/mL diluted 1:81; duplicate well 2
human β-NGF (human) [13] = target: human β-NGF (human) (UniProt P01138); test: ELISA, plate coated with 0.5 µg/mL human β-NGF; antibody 1 µg/mL diluted 1:243; duplicate well 1
human β-NGF (human) [14] = target: human β-NGF (human) (UniProt P01138); test: ELISA, plate coated with 0.5 µg/mL human β-NGF; antibody 1 µg/mL diluted 1:243; duplicate well 2
human β-NGF (human) [15] = target: human β-NGF (human) (UniProt P01138); test: ELISA, plate coated with 0.5 µg/mL human β-NGF; antibody 1 µg/mL diluted 1:729; duplicate well 1
human β-NGF (human) [16] = target: human β-NGF (human) (UniProt P01138); test: ELISA, plate coated with 0.5 µg/mL human β-NGF; antibody 1 µg/mL diluted 1:729; duplicate well 2

Sequence of human β-NGF (human) (P01138 122-241 limits assumed): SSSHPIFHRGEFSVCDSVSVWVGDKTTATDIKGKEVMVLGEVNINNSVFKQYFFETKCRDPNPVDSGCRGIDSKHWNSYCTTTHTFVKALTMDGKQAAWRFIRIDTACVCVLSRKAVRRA

Pfizer antibody Tanezumab
neutralizing EC50 to NGF (inhibition of NGF-induced TF-1 cell proliferation, CCK-8) [1]: 0.21 nM
EC50 (human β-NGF (human) [2]): 0.103 nM
OD (450 nm) (human β-NGF (human) [3]): 2.77 OD (450 nm)
OD (450 nm) (human β-NGF (human) [4]): 2.71 OD (450 nm)
OD (450 nm) (human β-NGF (human) [5]): 2.66 OD (450 nm)
OD (450 nm) (human β-NGF (human) [6]): 2.55 OD (450 nm)
OD (450 nm) (human β-NGF (human) [7]): 2.48 OD (450 nm)
OD (450 nm) (human β-NGF (human) [8]): 2.27 OD (450 nm)
OD (450 nm) (human β-NGF (human) [9]): 2.17 OD (450 nm)
OD (450 nm) (human β-NGF (human) [10]): 1.97 OD (450 nm)
OD (450 nm) (human β-NGF (human) [11]): 1.18 OD (450 nm)
OD (450 nm) (human β-NGF (human) [12]): 1.27 OD (450 nm)
OD (450 nm) (human β-NGF (human) [13]): 0.56 OD (450 nm)
OD (450 nm) (human β-NGF (human) [14]): 0.609 OD (450 nm)
OD (450 nm) (human β-NGF (human) [15]): 0.227 OD (450 nm)
OD (450 nm) (human β-NGF (human) [16]): 0.245 OD (450 nm)
